# Substitutions are numbered along the chain they refer to.
# B1: ISOP121FR5P1G1 (designed binder, not shown: small tags and cut ends)
# chain: LPAPKNLVVSRVTEDSARLSWTAPDAAFDSFWIHYTEAPVHGEAIVLTVPGSERSYDLTGLKPGTEYTVVIWGVKGGTWSSPLSAIFTT
# notes: FN3 domain; E. coli lysate in the ELISA
# B2: ISOP121BR5P1D3 (designed binder, not shown: small tags and cut ends)
# chain: LPAPKNLVVSRVTEDSARLSWYEDNTERFDSFLIQYQESEKVGEAIVLTVPGSERSYDLTGLKPGTEYTVSIYGVYIRVQVLWFSNPLSAIFTT
# notes: as for B1
# B3: ISOP194BR9P1D10 (designed binder, not shown: small tags and cut ends)
# chain: B2 chain with G43V
# notes: as for B1
# B4: ISOP194AR9P1C5 (designed binder, not shown: small tags and cut ends)
# chain: LPAPKNLVVSRVTEDSARLSWLRDFNGRAFFDSFLIQYQESEKVGEAIVLTVPGSERSYDPTGLKPGTEYTVSIYGVFITWIHVRSNPLSAIFTT
# notes: as for B1
# B5: ISOP194BR9P1F7 (designed binder, not shown: small tags and cut ends)
# chain: LPAPKNLVVSRVTEDSARLSWFNADEEYFDSFLIQYQESEKVGEAIVLTVPGSERSYDLTGLKPGTEYTVSIYGVYTRGRYEWRESNPLSAIFTT
# notes: as for B1
# B6: ISOP194GR9P1F6 (designed binder, not shown: small tags and cut ends)
# chain: LPAPKNLVVSRVTEDSARLSWTAPDAAFDSFWIDYWERLSEGEAIALRVPGSERSYDLTGLKPGTEYYVWIVGVKGGKFSQPLRAWFTT
# notes: as for B1
# B7: ISOP194BR9P1D1 (designed binder, not shown: small tags and cut ends)
# chain: LPAPKNLVVSRVTEDSARLSWEHSLLNDQWFDSFLIQYQESEKVGEAIVLTVPGSERSYDLTGLKPGTEYTVSIYGVYQRGRALWYSNPLSAIFTT
# notes: as for B1
# B8: ISOP194AR9P1H3 (designed binder, not shown: small tags and cut ends)
# chain: LPAPKNLVVSRVTEDSARLSWNASWISHNFFDSFLIQYQESEKVGEAIVLTVPGSERSYDLTGLKPGTEYTVSIYGVYERKTAFYSNPLSAIFTT
# notes: as for B1
# B9: ISOP194AR9P1D8 (designed binder, not shown: small tags and cut ends)
# chain: LPAPKNLVVSRVTEDSARLSWDTWNDFFDSFLIQYQESEKVGEAIVLTVPGSERSYDLTGLKPGTEYTVSIYGVYQRKVIWLSNPLSAIFTT
# notes: as for B1
# B10: ISOP194AR9P1D11 (designed binder, not shown: small tags and cut ends)
# chain: B9 chain with A17G, D22Q, T23H, W24H, N25I, D26S, Q76N, I80N, W81F, L82Y
# notes: as for B1
# B11: ISOP194ER9P1E6 (designed binder, not shown: small tags and cut ends)
# chain: LPAPKNLVVSRVTEDSARLSWTAPDAAFDSFWIKYYEKRNPGEAIVLTVPGSERSYDLTGLKPGTEYLVIISGVKGGSRSVPLSAIFTT
# notes: as for B1
# B12: ISOP121HR5P1H2 (designed binder, not shown: small tags and cut ends)
# chain: LPAPKNLVVSRVTEDSARLSWTAPDAAFDSFDIYYLEYDYSGEAIVLTVPGSERSYDLTGLKPGTEYDVLIIGVKGGSLSTPLSAIFTT
# notes: as for B1
# B13: ISOP121FR5P1G11 (designed binder, not shown: small tags and cut ends)
# chain: LPAPKNLVVSRVTEDSARLSWTAPDAAFDSFSIWYLEIVAHGEAIVLTVPGSERSYDLTGLKPGTEYEVIIHGVKGCGPSGPLSAIFTT
# notes: as for B1
# B14: ISOP121BR5P1G2 (designed binder, not shown: small tags and cut ends)
# chain: LPAPKNLVVSRVTEDSARLSWADELHHANHFDSFLIQYQESEKVGEAIVLTVPGSERSYDLTGLKPGTEYTVSIYGVYDRHYEIHFYSNPLSAIFTT
# notes: as for B1
# B15: ISOP194GR9P1F9 (designed binder, not shown: small tags and cut ends)
# chain: LPAPKNLVVSRVTEDSARLSWTAPDAAFDSFWIFYNERWQNGEAIRLIVPGSERSYDLTGLKPGTEYSVIIPGVKGGRNSFPLWAWFTT
# notes: as for B1
# B16: ISOP121BR5P1B7 (designed binder, not shown: small tags and cut ends)
# chain: LPAPKNLVVSRITEDSARLSWKWEEGFFDSFLIQYQESEKVGEAIVLTVPGSERSYDLTGLKPGTEYTVSIYGVYQRHASAFVSNPLSAIFTT
# notes: as for B1
# B17: ISOP121HR5P1G9 (designed binder, not shown: small tags and cut ends)
# chain: LPAPKNLVVSRVTEDSARLSWTAPDAAFDSFPINYGERATKGEAINLYVPGSERSYDLTGLKPGTEYWVLIGGVKGGLKSSPLWAWFTT
# notes: as for B1
# B18: ISOP194GR9P1C11 (designed binder, not shown: small tags and cut ends)
# chain: B15 chain with I48T, S68W, I70L, P72G, R78L, N79K, F81S
# notes: as for B1
# B19: ISOP121GR5P1B4 (designed binder, not shown: small tags and cut ends)
# chain: B17 chain with V8I
# notes: as for B1
# B20: ISOP121AR5P1G6 (designed binder, not shown: small tags and cut ends)
# chain: LPAPKNLVVSRVTEDSARLSWHATFGDPFDSFLIQYQESEKVGEAIVLTVPGSERSYDLTGLKPGTEYTVSIYGVGRHYTVYDSNPLSAIFTT
# notes: as for B1
# B21: ISOP194HR9P1B10 (designed binder, not shown: small tags and cut ends)
# chain: LPAPKNLVVSRVTEDSARLSWTAPDAAFDSFPIRYYERANGEAIVLTVPGSERSYDLTGLKPGTEYIVWIYGVKGGGRSGPLSAIFTT
# notes: as for B1
# B22: ISOP121AR5P1F9 (designed binder, not shown: small tags and cut ends)
# chain: LPAPKNLVVSRVTEDSARLSWGWSELIATHFDSFLIQYQESEKVGEAIVLTVPGSERSYDLTGLKPGTEYTVSIYGVYNRKVNFYSNPLSAIFTT
# notes: as for B1
# B23: ISOP121AR5P1F2 (designed binder, not shown: small tags and cut ends)
# chain: B22 chain with V9I
# notes: as for B1
# B24: ISOP194AR9P1H1 (designed binder, not shown: small tags and cut ends)
# chain: B22 chain with G22W, W23R, S24V, E25L, L26G, I27H, A28S, T29H, H30F
# notes: as for B1
# Target: T1, recombinant biotinylated PD-L1 (rhPD-L1/Fc Chimera, R&D Systems 156-B7) (human, UniProt Q9NZQ7 19-238, biotinylated (sites not given))
# T1 construct: Bought Fc chimera; also called human PD-L1
# T1 sequence (Q9NZQ7 19-238, change not shown): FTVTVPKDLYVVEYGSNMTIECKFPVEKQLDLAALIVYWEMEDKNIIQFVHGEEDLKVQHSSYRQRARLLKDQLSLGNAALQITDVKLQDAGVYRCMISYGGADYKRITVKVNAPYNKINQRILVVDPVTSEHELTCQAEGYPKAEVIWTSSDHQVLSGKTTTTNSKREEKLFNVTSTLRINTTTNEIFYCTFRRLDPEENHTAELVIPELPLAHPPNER
# Experiment: ELISA, lysate on plate-bound antigen
# Procedure: Streptavidin-coated Maxisorp plates (Nunc catalog 436110) were blocked for 1 h in Starting Block T20 (Pierce) and then coated with biotinylated PD-L1 (using same antigen as in panning) or negative controls (an unrelated Fc-fused recombinant protein and human serum albumin) for 1 h. Plates were rinsed with TBST and diluted lysate was applied to plates for 1 h. Following additional rinses, wells were treated with HRP-conjugated anti-FN3 domain antibody (PAB25) for 1 h and then assayed with POD (Roche catalog 11582950001).
row,ELISA PD-L1 Fc (RSU),Binder
1,10000 RSU,B1
2,75800 RSU,B2
3,1.67e+06 RSU,B3
4,4.37e+06 RSU,B4
5,1.52e+07 RSU,B5
6,319000 RSU,B6
7,2.15e+06 RSU,B7
8,1.77e+07 RSU,B8
9,923000 RSU,B9
10,1.04e+06 RSU,B10
11,8.98e+06 RSU,B11
12,21000 RSU,B12
13,18600 RSU,B13
14,16700 RSU,B14
15,105000 RSU,B15
16,11400 RSU,B16
17,17800 RSU,B17
18,164000 RSU,B18
19,16200 RSU,B19
20,17000 RSU,B20
21,385000 RSU,B21
22,136000 RSU,B22
23,51000 RSU,B23
24,2.14e+07 RSU,B24

# Target: unrelated Fc-fused recombinant protein
# Experiment: ELISA, lysate on plate-bound antigen
row,ELISA Fc Control (RSU),Binder
1,640 RSU,B1
2,800 RSU,B2
3,720 RSU,B3
4,3440 RSU,B4
5,1920 RSU,B5
6,400 RSU,B6
7,1360 RSU,B7
8,9200 RSU,B8
9,12000 RSU,B9
10,28200 RSU,B10
11,240 RSU,B11
12,720 RSU,B12
13,880 RSU,B13
14,800 RSU,B14
15,320 RSU,B15
16,640 RSU,B16
17,880 RSU,B17
18,1040 RSU,B18
19,800 RSU,B19
20,1200 RSU,B20
21,560 RSU,B21
22,1120 RSU,B22
23,880 RSU,B23
24,15700 RSU,B24

# Target: human serum albumin (human) (UniProt P02768)
# Sequence (P02768 25-609 limits assumed): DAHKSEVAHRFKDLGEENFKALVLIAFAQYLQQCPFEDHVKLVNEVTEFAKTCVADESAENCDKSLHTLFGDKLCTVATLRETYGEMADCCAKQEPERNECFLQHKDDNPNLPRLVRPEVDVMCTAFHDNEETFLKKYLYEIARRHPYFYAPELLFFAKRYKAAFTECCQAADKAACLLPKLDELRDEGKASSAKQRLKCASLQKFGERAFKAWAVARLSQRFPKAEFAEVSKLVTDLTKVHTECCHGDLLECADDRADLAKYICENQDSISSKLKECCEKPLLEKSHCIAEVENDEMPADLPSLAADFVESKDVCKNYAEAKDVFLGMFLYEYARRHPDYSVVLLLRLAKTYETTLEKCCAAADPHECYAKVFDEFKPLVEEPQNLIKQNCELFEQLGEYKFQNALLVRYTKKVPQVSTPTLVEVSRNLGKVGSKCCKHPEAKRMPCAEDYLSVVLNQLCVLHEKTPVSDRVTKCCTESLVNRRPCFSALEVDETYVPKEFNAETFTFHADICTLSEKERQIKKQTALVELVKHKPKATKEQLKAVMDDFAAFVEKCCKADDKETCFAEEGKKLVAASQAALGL
# Experiment: ELISA, lysate on plate-bound antigen
row,ELISA HSA (RSU),Binder
1,400 RSU,B1
2,800 RSU,B2
3,1120 RSU,B3
4,1040 RSU,B4
5,1760 RSU,B5
6,1200 RSU,B6
7,1280 RSU,B7
8,4880 RSU,B8
9,6560 RSU,B9
10,12700 RSU,B10
11,720 RSU,B11
12,560 RSU,B12
13,480 RSU,B13
14,560 RSU,B14
15,800 RSU,B15
16,480 RSU,B16
17,1760 RSU,B17
18,1440 RSU,B18
19,560 RSU,B19
20,880 RSU,B20
21,1840 RSU,B21
22,1040 RSU,B22
23,960 RSU,B23
24,6800 RSU,B24

# Source: US20180162928A1 (Janssen / Centocor, published 2018)
